Laboratory results: patent publication US20230374132A1
Substitutions are numbered along the chain they refer to.

B1: SGN70-sp34.24LH (bispecific antibody, part only; not given: anti-CD70 Fab arm and Fc, not shown: another chain or arm of the molecule; a dimerising Fc or GST; large carriers; small tags and cut ends)
scFv: QAVVTQEPSLTVSPGGTVTLTCRSSTGAVTTSNYANWVQQKPGQAPRGLIGGTNKRAPGVPARFSGSLLGDKAALTLLGAQPEDEAEYYCALWYSNLWVFGQGTKLTVLGGGGSGGGGSGGGGSGGGGSEVQLVESGGGLVQPGGSLKLSCAASGFTFNTYAMNWVRQASGKGLEWVGRIRSKYNNYATYYADSVKDRFTISRDDSKSTLYLQMNSLKTEDTAVYYCARHGNFGQSYVSWFAYWGQGTTVTVSS
B2: SGN70-sp34.24HL (bispecific antibody, part only; not given: anti-CD70 Fab arm and Fc, not shown: another chain or arm of the molecule; a dimerising Fc or GST; large carriers; small tags and cut ends)
scFv: EVQLVESGGGLVQPGGSLKLSCAASGFTFNTYAMNWVRQASGKGLEWVGRIRSKYNNYATYYADSVKDRFTISRDDSKSTLYLQMNSLKTEDTAVYYCARHGNFGQSYVSWFAYWGQGTTVTVSSGGGGSGGGGSGGGGSGGGGSQAVVTQEPSLTVSPGGTVTLTCRSSTGAVTTSNYANWVQQKPGQAPRGLIGGTNKRAPGVPARFSGSLLGDKAALTLLGAQPEDEAEYYCALWYSNLWVFGQGTKLTVL
B3: SGN70-sp34.80LH (bispecific antibody, part only; not given: anti-CD70 Fab arm and Fc, not shown: another chain or arm of the molecule; a dimerising Fc or GST)
scFv: B1 scFv with Y161A
B4: SGN70-sp34.87LH (bispecific antibody, part only; not given: anti-CD70 Fab arm and Fc, not shown: another chain or arm of the molecule; a dimerising Fc or GST)
scFv: B1 scFv with G231Y
B5: SGN70-sp34.87HL (bispecific antibody, part only; not given: anti-CD70 Fab arm and Fc, not shown: another chain or arm of the molecule; a dimerising Fc or GST)
scFv: B2 scFv with G102Y
B6: SGN70-sp34.97LH (bispecific antibody, part only; not given: anti-CD70 Fab arm and Fc, not shown: another chain or arm of the molecule; a dimerising Fc or GST)
scFv: B1 scFv with Y184A, N185G, N186G
B7: SGN70-sp34.97HL (bispecific antibody, part only; not given: anti-CD70 Fab arm and Fc, not shown: another chain or arm of the molecule; a dimerising Fc or GST)
scFv: B2 scFv with Y55A, N56G, N57G
B8: SGN70-sp34.99LH (bispecific antibody, part only; not given: anti-CD70 Fab arm and Fc, not shown: another chain or arm of the molecule; a dimerising Fc or GST)
scFv: B1 scFv with F233A, G234Y
B9: SGN70-sp34.101LH (bispecific antibody, part only; not given: anti-CD70 Fab arm and Fc, not shown: another chain or arm of the molecule; a dimerising Fc or GST; large carriers)
scFv: B1 scFv with Y237A, V238A
B10: SGN70-sp34.101HL (bispecific antibody, part only; not given: anti-CD70 Fab arm and Fc, not shown: another chain or arm of the molecule; a dimerising Fc or GST; large carriers)
scFv: B2 scFv with Y108A, V109A

molecular target: cynomolgus monkey CD3 E&D complex protein (Sino Biological Inc., CT032-00323H) (cynomolgus monkey) (UniProt Q95LI5); assay: SPR, antigen on chip
Sequence (Q95LI5 22-117, chain 1 of 2): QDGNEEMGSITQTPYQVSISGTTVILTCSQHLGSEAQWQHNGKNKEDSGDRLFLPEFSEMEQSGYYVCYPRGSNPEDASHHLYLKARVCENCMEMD
Sequence (Q95LI8 22-105, chain 2 of 2, further chain): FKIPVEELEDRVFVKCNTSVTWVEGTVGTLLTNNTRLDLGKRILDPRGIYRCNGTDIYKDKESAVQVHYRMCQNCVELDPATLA

Binder	Kd	koff	kon
B1	141 nM	0.0158 s⁻¹	113000 M⁻¹ s⁻¹
B2	179 nM	0.0302 s⁻¹	169000 M⁻¹ s⁻¹
B3	6490 nM	0.749 s⁻¹	115000 M⁻¹ s⁻¹
B4	544 nM	0.0466 s⁻¹	85700 M⁻¹ s⁻¹
B5	633 nM	0.195 s⁻¹	308000 M⁻¹ s⁻¹
B6	5220 nM	0.333 s⁻¹	63800 M⁻¹ s⁻¹
B7	5500 nM	0.705 s⁻¹	128000 M⁻¹ s⁻¹
B8	14600 nM	0.217 s⁻¹	14900 M⁻¹ s⁻¹
B9	614 nM	0.144 s⁻¹	235000 M⁻¹ s⁻¹
B10	658 nM	0.177 s⁻¹	269000 M⁻¹ s⁻¹

molecular target: human CD3E&G complex (Sino Biological Inc., CT041-H0305H) (human) (UniProt P07766); assay: SPR, antigen on chip
Sequence (P07766 23-126, chain 1 of 2): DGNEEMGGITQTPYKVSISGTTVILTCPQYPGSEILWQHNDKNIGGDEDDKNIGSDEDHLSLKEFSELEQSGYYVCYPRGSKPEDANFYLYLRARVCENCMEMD
Sequence (P09693 23-116, chain 2 of 2, further chain): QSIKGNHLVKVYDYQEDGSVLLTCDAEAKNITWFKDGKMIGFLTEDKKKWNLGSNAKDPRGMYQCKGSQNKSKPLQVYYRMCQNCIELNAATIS

Binder	Kd	koff	kon
B1	98 nM	0.0146 s⁻¹	150000 M⁻¹ s⁻¹
B2	110 nM	0.029 s⁻¹	265000 M⁻¹ s⁻¹
B3	4060 nM	0.201 s⁻¹	49700 M⁻¹ s⁻¹
B4	335 nM	0.107 s⁻¹	321000 M⁻¹ s⁻¹
B5	501 nM	0.253 s⁻¹	504000 M⁻¹ s⁻¹
B6	3110 nM	0.253 s⁻¹	81300 M⁻¹ s⁻¹
B7	5200 nM	0.416 s⁻¹	79900 M⁻¹ s⁻¹
B8	8060 nM	0.993 s⁻¹	123000 M⁻¹ s⁻¹
B9	409 nM	0.119 s⁻¹	290000 M⁻¹ s⁻¹
B10	480 nM	0.167 s⁻¹	347000 M⁻¹ s⁻¹
